{"source": "IntAct's records for PubMed 31515488", "parents": {"B1": {"name": "Vesicle transport through interaction with t-SNAREs homolog 1B (Homo sapiens), Q9UEU0 (parent)", "chain": "MASSAASSEHFEKLHEIFRGLHEDLQGVPERLLGTAGTEEKKKLIRDFDEKQQEANETLAEMEEELRYAPLSFRNPMMSKLRNYRKDLAKLHREVRSTPLTATPGGRGDMKYGIYAVENEHMNRLQSQRAMLLQGTESLNRATQSIERSHRIATETDQIGSEIIEELGEQRDQLERTKSRLVNTSENLSKSRKILRSMSRKVTTNKLLLSIIILLELAILGGLVYYKFFRSH", "partner": "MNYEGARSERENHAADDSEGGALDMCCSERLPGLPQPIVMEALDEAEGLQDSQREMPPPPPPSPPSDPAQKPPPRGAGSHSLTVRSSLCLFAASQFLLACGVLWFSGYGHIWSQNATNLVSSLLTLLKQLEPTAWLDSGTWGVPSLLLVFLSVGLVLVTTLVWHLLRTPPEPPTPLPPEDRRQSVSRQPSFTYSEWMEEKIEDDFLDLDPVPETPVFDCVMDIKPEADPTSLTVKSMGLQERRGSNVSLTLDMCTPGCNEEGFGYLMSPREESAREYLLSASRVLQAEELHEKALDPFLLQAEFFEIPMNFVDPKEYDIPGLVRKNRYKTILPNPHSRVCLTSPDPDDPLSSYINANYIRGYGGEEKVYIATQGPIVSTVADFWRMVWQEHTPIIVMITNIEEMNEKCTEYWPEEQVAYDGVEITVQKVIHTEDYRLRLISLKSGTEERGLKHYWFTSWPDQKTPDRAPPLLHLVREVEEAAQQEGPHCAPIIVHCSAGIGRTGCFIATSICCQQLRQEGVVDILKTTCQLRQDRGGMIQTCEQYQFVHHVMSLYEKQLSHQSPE"}, "B2": {"name": "Keratin, type I cytoskeletal 40 (Homo sapiens), Q6A162 (parent)", "chain": "MTSDCSSTHCSPESCGTASGCAPASSCSVETACLPGTCATSRCQTPSFLSRSRGLTGCLLPCYFTGSCNSPCLVGNCAWCEDGVFTSNEKETMQFLNDRLASYLEKVRSLEETNAELESRIQEQCEQDIPMVCPDYQRYFNTIEDLQQKILCTKAENSRLAVQLDNCKLATDDFKSKYESELSLRQLLEADISSLHGILEELTLCKSDLEAHVESLKEDLLCLKKNHEEEVNLLREQLGDRLSVELDTAPTLDLNRVLDEMRCQCETVLANNRREAEEWLAVQTEELNQQQLSSAEQLQGCQMEILELKRTASALEIELQAQQSLTESLECTVAETEAQYSSQLAQIQCLIDNLENQLAEIRCDLERQNQEYQVLLDVKARLEGEINTYWGLLDSEDSRLSCSPCSTTCTSSNTCEPCSAYVICTVENCCL"}}, "data": [{"variants_of": "B1", "conditions": "with ptn5_human PTPN5, P54829", "values": [{"variant": "R176H", "effect of a mutation on the interaction": "with no effect"}, {"variant": "R124Q", "effect of a mutation on the interaction": "with no effect"}]}, {"variants_of": "B2", "conditions": "with wt1_human WT1, P19544", "values": [{"variant": "T153M", "effect of a mutation on the interaction": "with no effect"}, {"variant": "C265Y", "effect of a mutation on the interaction": "with no effect"}, {"variant": "T37A", "effect of a mutation on the interaction": "with no effect"}, {"variant": "C349R", "effect of a mutation on the interaction": "with no effect"}, {"variant": "W390R", "effect of a mutation on the interaction": "with no effect"}, {"variant": "M303T", "effect of a mutation on the interaction": "with no effect"}, {"variant": "R235H", "effect of a mutation on the interaction": "with no effect"}, {"variant": "S406L", "effect of a mutation on the interaction": "with no effect"}, {"variant": "F85S", "effect of a mutation on the interaction": "with no effect"}, {"variant": "T388M", "effect of a mutation on the interaction": "with no effect"}]}, {"variants_of": "B2", "conditions": "with k2c4_human KRT4, P19013", "values": [{"variant": "T153M", "effect of a mutation on the interaction": "with no effect"}, {"variant": "C265Y", "effect of a mutation on the interaction": "with no effect"}, {"variant": "T37A", "effect of a mutation on the interaction": "with no effect"}, {"variant": "C349R", "effect of a mutation on the interaction": "with no effect"}, {"variant": "W390R", "effect of a mutation on the interaction": "with no effect"}, {"variant": "M303T", "effect of a mutation on the interaction": "with no effect"}, {"variant": "R235H", "effect of a mutation on the interaction": "with no effect"}, {"variant": "S406L", "effect of a mutation on the interaction": "with no effect"}, {"variant": "F85S", "effect of a mutation on the interaction": "with no effect"}, {"variant": "T388M", "effect of a mutation on the interaction": "with no effect"}]}, {"variants_of": "B2", "conditions": "with mta1_human MTA1, Q13330", "values": [{"variant": "T153M", "effect of a mutation on the interaction": "with no effect"}, {"variant": "C265Y", "effect of a mutation on the interaction": "with no effect"}, {"variant": "T37A", "effect of a mutation on the interaction": "with no effect"}, {"variant": "C349R", "effect of a mutation on the interaction": "with no effect"}, {"variant": "W390R", "effect of a mutation on the interaction": "with no effect"}, {"variant": "M303T", "effect of a mutation on the interaction": "with no effect"}, {"variant": "R235H", "effect of a mutation on the interaction": "with no effect"}, {"variant": "S406L", "effect of a mutation on the interaction": "with no effect"}, {"variant": "F85S", "effect of a mutation on the interaction": "with no effect"}, {"variant": "T388M", "effect of a mutation on the interaction": "with no effect"}]}, {"variants_of": "B2", "conditions": "with prs8_human PSMC5, P62195", "values": [{"variant": "T153M", "effect of a mutation on the interaction": "with no effect"}, {"variant": "C265Y", "effect of a mutation on the interaction": "with no effect"}, {"variant": "T37A", "effect of a mutation on the interaction": "with no effect"}, {"variant": "C349R", "effect of a mutation on the interaction": "with no effect"}, {"variant": "W390R", "effect of a mutation on the interaction": "with no effect"}, {"variant": "M303T", "effect of a mutation on the interaction": "with no effect"}, {"variant": "R235H", "effect of a mutation on the interaction": "with no effect"}, {"variant": "S406L", "effect of a mutation on the interaction": "with no effect"}, {"variant": "F85S", "effect of a mutation on the interaction": "with no effect"}, {"variant": "T388M", "effect of a mutation on the interaction": "with no effect"}]}, {"variants_of": "B2", "conditions": "with snai1_human SNAI1, O95863", "values": [{"variant": "T153M", "effect of a mutation on the interaction": "with no effect"}, {"variant": "C265Y", "effect of a mutation on the interaction": "with no effect"}, {"variant": "T37A", "effect of a mutation on the interaction": "with no effect"}, {"variant": "C349R", "effect of a mutation on the interaction": "with no effect"}, {"variant": "W390R", "effect of a mutation on the interaction": "with no effect"}, {"variant": "M303T", "effect of a mutation on the interaction": "with no effect"}, {"variant": "R235H", "effect of a mutation on the interaction": "with no effect"}, {"variant": "S406L", "effect of a mutation on the interaction": "with no effect"}, {"variant": "F85S", "effect of a mutation on the interaction": "with no effect"}, {"variant": "T388M", "effect of a mutation on the interaction": "with no effect"}]}]}
